# According to patent US20100068151A1 (published 2010):
# B1: VEGF121/rGel fusion toxin (other)
# chain: APMAEGGGQNHHEVVKFMDVYQRSYCHPIETLVDIFQEYPDEIEYIFKPSCVPLMRCGGCCNDEGLECVPTEESNITMQIMRIKPHQGQHIGEMSFLQHNKCECRPKKDRARQEKCDKPRRGGGGSGLDTVSFSTKGATYITYVNFLNELRVKLKPEGNSHGIPLLRKKCDDPGKCFVLVALSNDNGQLAEIAIDVTSVYVVGYQVRNRSYFFKDAPDAAYEGLFKNTIKTRLHFGGSYPSLEGEKAYRETTDLGIEPLRIGIKKLDENAIDNYKPTEIASSLLVVIQMVSEAARFTFIENQIRNNFQQRIRPANNTISLENKWGKLSFQIRTSGANGMFSEAVELERANGKKYYVTAVDQVKPKIALLKFVDKDPK
# notes: Described as an 84-kDa fusion protein made as in Veenendaal et al., 2002; also called vasculature-targeting fusion protein
# B2: DOTA-VEGF121/rGel conjugate (other)
# chain: B1 chain
# modifications: DOTA chelator conjugated, 3.3±0.1 DOTA molecules per VEGF121/rGel molecule; sites not stated
# Target: T1, VEGFR-2 expressed on PAE/KDR cells (human, UniProt P35968 20-1356)
# T1 construct: whole, on cells
# Assay: cell-binding assay, displacement of 125I-VEGF165 from PAE/KDR cells
# T1 sequence (P35968 20-1356): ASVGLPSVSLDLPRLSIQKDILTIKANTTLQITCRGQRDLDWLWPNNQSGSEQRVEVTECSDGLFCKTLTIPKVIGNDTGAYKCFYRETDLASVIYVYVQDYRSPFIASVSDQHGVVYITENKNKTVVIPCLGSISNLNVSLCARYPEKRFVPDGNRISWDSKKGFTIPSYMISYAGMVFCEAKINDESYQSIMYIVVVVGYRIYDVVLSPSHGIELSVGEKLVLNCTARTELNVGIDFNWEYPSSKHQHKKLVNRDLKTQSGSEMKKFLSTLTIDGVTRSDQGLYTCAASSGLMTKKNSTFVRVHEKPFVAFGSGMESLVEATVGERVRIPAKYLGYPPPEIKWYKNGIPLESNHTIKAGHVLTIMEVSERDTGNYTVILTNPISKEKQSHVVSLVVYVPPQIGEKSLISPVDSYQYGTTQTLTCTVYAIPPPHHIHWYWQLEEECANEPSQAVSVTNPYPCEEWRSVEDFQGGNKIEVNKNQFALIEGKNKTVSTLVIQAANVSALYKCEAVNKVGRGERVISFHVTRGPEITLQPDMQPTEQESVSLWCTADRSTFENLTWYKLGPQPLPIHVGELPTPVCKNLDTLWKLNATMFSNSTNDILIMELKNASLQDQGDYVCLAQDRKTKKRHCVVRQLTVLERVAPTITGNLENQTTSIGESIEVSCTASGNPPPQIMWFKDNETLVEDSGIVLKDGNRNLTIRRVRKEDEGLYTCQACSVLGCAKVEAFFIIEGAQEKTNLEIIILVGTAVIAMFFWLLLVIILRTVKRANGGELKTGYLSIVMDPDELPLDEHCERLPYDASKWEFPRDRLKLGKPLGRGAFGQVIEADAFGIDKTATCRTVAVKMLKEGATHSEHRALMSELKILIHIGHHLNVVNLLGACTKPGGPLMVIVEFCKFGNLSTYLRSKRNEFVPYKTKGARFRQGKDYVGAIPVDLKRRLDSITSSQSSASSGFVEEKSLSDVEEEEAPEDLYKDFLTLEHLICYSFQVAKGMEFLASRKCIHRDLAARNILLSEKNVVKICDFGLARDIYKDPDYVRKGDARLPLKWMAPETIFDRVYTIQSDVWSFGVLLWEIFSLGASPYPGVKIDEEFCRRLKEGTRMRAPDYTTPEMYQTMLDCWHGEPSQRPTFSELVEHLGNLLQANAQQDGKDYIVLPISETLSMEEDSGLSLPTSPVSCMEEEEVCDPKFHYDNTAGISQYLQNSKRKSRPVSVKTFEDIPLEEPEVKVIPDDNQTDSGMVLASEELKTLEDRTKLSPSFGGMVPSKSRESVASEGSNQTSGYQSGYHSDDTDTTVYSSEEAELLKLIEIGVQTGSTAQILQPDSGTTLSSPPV
row,Binder,IC50 [nM]
1,B1,24.5
2,B2,40.6
